The Human Domainome abundance scans (Beltran et al. 2025)

B1: POU domain, class 3, transcription factor 2, residues 356 to 411; numbered along this chain, P20265 (parent)
chain: KKRTSIEVSVKGALESHFLKCPKPSAQEITSLADSLQLEKEVVRVWFCNRRQKEKR

Variants of: B1
Assay: abundance fitness (aPCA) (normalised: wild type 0, dead -1); higher = more abundant; growth selection in yeast, the domain comes from the species named
Conditions: Homo sapiens

Abundance fitness, by site and new letter:
P22: I -0.704; A -0.044; Q 0.137; N -0.337; Y -0.718; C -0.227; K -0.348; H -0.189; E -0.246; L -0.919; D -0.122; V -0.713; T -0.313; R -0.367; S -0.253; W -0.699; F -0.996; G -0.46
S25: C -0.231; V -0.725; K -0.318; R -0.47; Y -0.798; I -0.793; G -0.194; H -0.467; N -0.167; T 0.038; L -0.423; A -0.322; F -0.902; P -0.579; M -0.446
S35: C -0.133; D 0.091; H -0.026; P -0.961; Y -0.115; G -0.033; N -0.125; Q 0.008; V -0.119; F -0.22; T 0.026; K 0.136; M -0.095; A -0.086; R 0.051; E 0.03; I -0.062; L -0.065; W -0.113
T30: W -0.324; Q 0.078; N 0.212; K 0.008; Y -0.285; S 0.036; R -0.151; V -0.016; C -0.131; E 0.022; F -0.396; A -0.041; I -0.237; D 0.05; L -0.091; H -0.205
L19: K -0.162; R 0.006; C -0.114; M 0.007; D -0.142; E -0.026; I -0.113; S -0.03; G -0.245; P -0.911; V -0.056; F -0.474; N -0.075; Y -0.248; T -0.183
Q37: K -0.064; R -0.138; C 0.087; L -0.245; P -0.916; T -0.316; A -0.054; Y -0.353; S -0.032; N -0.077; D -0.192; W -0.394; V -0.394; F -0.183; M -0.151; I -0.63
E28: Q -0.402; R -0.466; K -0.413; V -0.195; M -0.437; W -0.505; L -0.369; P -0.802; C -0.299; T -0.088; D -0.281; A -0.257; S -0.455; F -0.511; N -0.551; I -0.52
D34: A 0.082; Y 0.184; V -0.04; H 0.212; L 0.098; W 0.153; M 0.01; E -0.023; N 0.148; K 0.191; P -0.719; Q 0.105; T 0.055; F 0.031; G -0.1; S -0.041; R 0.244
A33: T -0.83; F -0.599; E -0.55; G -0.806; C -0.428; R -0.936; Y -0.963; N -0.963; M -0.759; K -0.631; I -1.03; V -0.71; P -0.794; S -0.236; H -0.789; W -0.735; Q -1.12
K23: Q -0.002; N 0.105; W -0.336; Y -0.312; P -0.863; L -0.203; E 0.072; M -0.077; T 0.086; G -0.426; D 0.093; V -0.045; I -0.117; S 0.024; R -0.041; C 0.023; A -0.135; F -0.163
L38: D -0.983; K -0.927; E -0.696; Q -0.519; N -0.964; V -0.119; A -0.713; G -0.871; P -0.969; Y -0.827; F -0.788; W -0.804; S -0.924; I -0.191; T -0.26
I29: K -0.994; S -0.884; L -0.095; W -0.855; C -0.633; A -1.03; R -0.93; Q -0.782; F -0.786; V -0.158; M -0.093; Y -0.741; H -0.817; E -0.763; T -0.593; N -1.05
C21: Y -0.506; E -0.072; M -0.354; P -1.14; D -0.062; N -0.168; L -0.651; R -0.419; F -0.351; K -0.478; A -0.304; G -0.521; Q -0.01; I -0.484; W -0.437; V -0.421
L32: V -0.303; T -0.943; G -0.834; D -1.03; E -0.916; P -0.944; F -0.341; S -0.875; Q -0.789; A -0.994; I -0.161; R -0.911; Y -0.831; M -0.08; K -0.927; W -0.915; H -0.857; N -1.07
L36: Y -0.151; E -0.892; Q -1.25; W -0.545; N -0.543; K -0.868; M -0.564; H -0.527; A -0.929; D -0.842; V -0.53; F -0.291; R -0.938; G -0.866; T -0.7; P -0.608; I -0.7; C -0.428
F18: L -0.836; G -0.976; N -0.856; R -0.872; S -0.824; H -0.938; E -0.979; I -1.1; V -1.03; W -0.335; T -1.2; K -0.936; M -1.02
P24: A -0.789; M -0.628; L -0.936; W -0.839; F -0.999; E -0.846; T -0.986; C -0.731; I -0.919; S -0.998; V -0.821; Q -0.86; G -0.691
K20: F -0.175; A -0.319; W -0.605; Q -0.443; V -0.323; Y -0.379; D -0.46; I -0.215; T -0.16; S -0.248; G -0.466; P -1.03; M -0.336; H -0.463; E -0.445; R -0.223; C -0.392; N -0.262; L -0.322
E39: A -0.224; C -0.133
A26: S -0.134; R -0.13; L -0.179; K -0.162; W -0.11; H -0.059; I -0.05; Q 0.01; E -0.064; D 0.151; M 0.03; N -0.097; T -0.033; V -0.049; Y -0.235; F -0.312; C -0.244; P -0.224; G -0.141
Q27: Y -0.268; V -0.061; W -0.292; A -0.126; G -0.131; K -0.014; E -0.155; I -0.14; M -0.35; R -0.007; S -0.079; D -0.08; C -0.081; N 0.028; H 0.092; F -0.327; P -0.21; T 0.02
